Columns and labels:
[1] = target: T1, CD40 expressed on the surface of B cells (human, UniProt P25942 21-277); test: flow cytometry; soluble CD40L titrated on Ramos B cells
[2] = target: T1, CD40 expressed on the surface of B cells; test: cell-based or functional assay

T1 sequence (P25942 21-277): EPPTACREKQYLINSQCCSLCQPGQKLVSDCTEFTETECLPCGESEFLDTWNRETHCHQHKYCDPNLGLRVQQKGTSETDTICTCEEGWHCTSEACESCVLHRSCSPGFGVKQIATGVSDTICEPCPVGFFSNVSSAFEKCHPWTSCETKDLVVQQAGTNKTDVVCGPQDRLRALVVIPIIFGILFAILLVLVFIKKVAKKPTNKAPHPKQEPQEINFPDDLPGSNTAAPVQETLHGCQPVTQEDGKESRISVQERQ

Molecule: recombinant human soluble CD40 ligand (CD154-muCD8), FITC-labeled (from UniProt P29965 47-261; P27548 47-260)
- saturation concentration [1]: 10 µg/mL

B1: monoclonal antibody S2C6 (antibody, V domains shown)
VH: EVQLQQSGPDLVKPGASVKISCKASGYSFTGYYIHWVKQSHGKSLEWIGRVIPNNGGTSYNQKFKGKAILTVDKSSSTAYMELRSLTSEDSAVYYCAREGIYWWGHGTTLTVSS
VL: DVVVTQTPLSLPVSLGAQASISCRSSQSLVHSNGNTFLHWYLQKPGQSPKLLIYTVSNRFSGVPDRFSGSGSGTDFTLKISRVEAEDLGVYFCSQTTHVPWTFGGGTKLEIQ
- B cell proliferation (3H-thymidine incorporation) with CD40L+ T cell titration and 30 ng/ml mAb, over mAb-only stimulation [2]: 3 fold
- B cell proliferation of primary human peripheral blood B cells with CD40L+ stimulator cells at 4:1 (B:T), against mAb alone [2]: 16.2 fold

B2: anti-CD40 mAb G28-5 (antibody, V domains shown)
VH: DIQLQQSGPGLVKPSQSLSLTCSVTGYSITTNYNWNWIRQFPGNKLEWMGYIRYDGTSEYTPSLKNRVSITRDTSMNQFFLRLTSVTPEDTATYYCARLDYWGQGTSVTVSS
VL: DAVMTQNPLSLPVSLGDEASISCRSSQSLENSNGNTFLNWFFQKPGQSPQLLIYRVSNRFSGVPDRFSGSGSGTDFTLKISRVEAEDLGVYFCLQVTHVPYTFGGGTTLEIK
- B cell proliferation (3H-thymidine incorporation) with CD40L+ T cell titration and 30 ng/ml mAb, over the level with mAb alone [2]: 1.3 fold
- activation (proliferation) of primary human peripheral blood B cells with CD40L+ stimulator cells at 4:1 (B:T), against mAb alone [2]: 2 fold

Reference: patent US6843989 (Seagen, dated 2005)
